Results: patent publication US9976134B2, “Thermolysin variants” (Danisco US Inc., priority 2007, dated 2018)
Positions count from the first letter of the chain named. Numbers in names are those of the source.

B1: Y151D: single-substitution thermolysin variant (SEQ ID NO:3 numbering) (protein, listed as Geobacillus caldoproteolyticus)
chain: ITGTSTVGVGRGVLGDQKNINTTYSTYYYLQDNTRGNGIFTYDAKYRTTLPGSLWADADNQFFASYDAPAVDAHYYAGVTYDYYKNVHNRLSYDGNNAAIRSSVHYSQGYNNAFWNGSQMVYGDGDGQTFIPLSGGIDVVAHELTHAVTDDTAGLIYQNESGAINEAISDIFGTLVEFYANKNPDWEIGEDVYTPGISGDSLRSMSDPAKYGDPDHYSKRYTGTQDNGGVHINSGIINKAAYLISQGGTHYGVSVVGIGRDKLGKIFYRALTQYLTPTSNFSQLRAAAVQSATDLYGSTSQEVASVKQAFDAVGVK
B2: Y151E: single-substitution thermolysin variant (SEQ ID NO:3 numbering) (protein, listed as Geobacillus caldoproteolyticus)
chain: B1 chain with D151E
B3: T049D: single-substitution thermolysin variant (SEQ ID NO:3 numbering) (protein, listed as Geobacillus caldoproteolyticus)
chain: B1 chain with T49D, D151Y
B4: T049S: single-substitution thermolysin variant (SEQ ID NO:3 numbering) (protein, listed as Geobacillus caldoproteolyticus)
chain: B1 chain with T49S, D151Y
B5: S065E: single-substitution thermolysin variant (SEQ ID NO:3 numbering) (protein, listed as Geobacillus caldoproteolyticus)
chain: B1 chain with S65E, D151Y
B6: Y151C: single-substitution thermolysin variant (SEQ ID NO:3 numbering) (protein, listed as Geobacillus caldoproteolyticus)
chain: B1 chain with D151C
B7: Y151H: single-substitution thermolysin variant (SEQ ID NO:3 numbering) (protein, listed as Geobacillus caldoproteolyticus)
chain: B1 chain with D151H
B8: S065C: single-substitution thermolysin variant (SEQ ID NO:3 numbering) (protein, listed as Geobacillus caldoproteolyticus)
chain: B1 chain with S65C, D151Y
B9: A056C: single-substitution thermolysin variant (SEQ ID NO:3 numbering) (protein, listed as Geobacillus caldoproteolyticus)
chain: B1 chain with A56C, D151Y
B10: Q128C: single-substitution thermolysin variant (SEQ ID NO:3 numbering) (protein, listed as Geobacillus caldoproteolyticus)
chain: B1 chain with Q128C, D151Y
B11: S065V: single-substitution thermolysin variant (SEQ ID NO:3 numbering) (protein, listed as Geobacillus caldoproteolyticus)
chain: B1 chain with S65V, D151Y
B12: T006C: single-substitution thermolysin variant (SEQ ID NO:3 numbering) (protein, listed as Geobacillus caldoproteolyticus)
chain: B1 chain with T6C, D151Y
B13: Y151S: single-substitution thermolysin variant (SEQ ID NO:3 numbering) (protein, listed as Geobacillus caldoproteolyticus)
chain: B1 chain with D151S
B14: Q128T: single-substitution thermolysin variant (SEQ ID NO:3 numbering) (protein, listed as Geobacillus caldoproteolyticus)
chain: B1 chain with Q128T, D151Y
B15: Y151A: single-substitution thermolysin variant (SEQ ID NO:3 numbering) (protein, listed as Geobacillus caldoproteolyticus)
chain: B1 chain with D151A

Assays:
[1] = TIDE 2X 0.78 g/l, 6 gpg, pH 8.2, 30 min at 20°C, A405; variant vs wild-type thermolysin at same protein concentration
Procedure: Thermolysin containing protease samples were obtained from filtered broth of cultures grown in microtiter plates for 3 days at 37° C. with shaking at 280 rpm under humidified aeration.
• Thermolysin containing culture supernatants (˜100-200 μg protein per ml) • TIDE® 2× (nil enzymes) detergent (P&G) • Dilution Buffer (10 mM NaCl, 0.1 mM CaCl2, 0.005% TWEEN®-80) The equipment used was a Biomek FX Robot (Beckman Coulter), a SpectraMAX MTP Reader (type 340; Molecular Devices), and an iEMS incubator/shaker (Thermo/Labsystems). MTPs were obtained from Costar (type 9017). TIDE® 2× Liquid Detergent Preparation (US Conditions):
Milli-Q water was adjusted to 6 gpg water hardness using a (Ca/Mg 3:1) hardness stock solution (282.3 g/L CaCl2.2H20, 130.1 g/L MgCl2.6H2O), 0.78 g/1 detergent TIDE® 2× was added, and the detergent solution was stirred vigorously for at least 15 minutes. Then, 5 mM HEPES was added and the pH adjusted to 8.2.
Microswatches of ¼ inch circular diameter were obtained from CFT (Vlaardingen, The Netherlands).
Two microswatches were placed vertically into each well of a 96-well microtiter plate to expose the whole surface area (i.e., not flat on the bottom of the well).
The incubator was set to 20° C. The filtered culture broth samples were tested at an appropriate concentration by dilution with a mixture of 10 mM NaCl, 0.1 mM CaCl2, 0.005% TWEEN®-80 solution. The detergent solution was prepared as described above. Then, 190 μl of detergent solution were added to each well of the MTP, containing microswatches. To this mixture, 10 μl of diluted enzyme solution were added to each well (to provide a total volume of 200 μl/well). The MTP was covered with a plate seal and placed in an incubator for 30 minutes at 20° C., with agitation at 1400 rpm (iEMS incubator). Following incubation under the appropriate conditions, 100 μl of solution from each well was removed and placed into a new MTP. Subsequently this MTP, containing 100 μl of solution/well, was read at 405 nm in a MTP-Reader. Blank controls, containing 2 microswatches/well and detergent, without the addition of thermolysin containing samples, were also included in the test.
The observed absorbance value was corrected for the blank value (obtained after incubation of microswatches in the absence of added enzyme). The resulting absorbance was a measure for the hydrolytic activity. For each sample (thermolysin or a variant) the performance index (PI) was calculated. The performance index is a comparison of the performance of the variant (actual value) and the standard thermolysin enzyme (theoretical value) at the same protein concentration. In addition, the theoretical values were calculated, using the parameters of the Langmuir equation of the standard enzyme.
C. Stability Assay in the Presence of Detergent
In this example, experiments were conducted to determine the stain removal performance of various singly substituted thermolysin (also referred to herein as Proteinase-T or PrT) variants. As described in Example 1, the stain cleaning performance of thermolysin variants was done utilizing a blood/milk/ink (BMI) microswatch assay. Briefly the cleaning performance of chosen single-substitution thermolysin variants was assessed in a TIDE® 2× microswatch assay.

[2] = Stability assay in 25% TIDE 2X detergent with DTPA (residual Abz-AGLA-Nba protease activity); format: physicochemical; conditions: 60 min at 32°C; variant residual AGLA activity divided by wild-type residual activity
Procedure: (§1) The stability of thermolysin and variants thereof was measured after incubation under defined conditions in the presence of 25% TIDE® 2× detergent. The initial and residual activity was determined.
(§2) MTPs were obtained from Costar (type 9017) and from Greiner (black plate, type 655076). Test Method Unstressed Conditions:
(§3) First, 20 μl thermolysin containing culture supernatant was diluted with 180 μl MES assay buffer. Then, 20 μl diluted supernatant was diluted further with 180 μl MES assay buffer. Subsequently 10 μl of this dilution was transferred into 190 μl AGLA-substrate solution in a pre-warmed plate (Greiner 655076) at 25° C. Any air bubbles present were blown away and the plate was measured according to the AGLA protease assay protocol described below.
(§4) First, 20 μl of culture supernatant was diluted with 180 μl 27.5% TIDE®+detergent solution and placed in the iEMS shaker. The plate covered with a plate seal was incubated for a total of 60 minutes at 32° C. at 900 rpm. In addition, 20 μl of culture supernatant was diluted with 180 μl 27.5% TIDE®−solution and placed in the iEMS shaker. This plate covered with a plate seal was incubated for a total of 180 minutes at 50° C. at 900 rpm.
(§5) Subsequently after the respective incubations, 20 μl of either of these solutions were diluted with 180 μl MES assay buffer and 10 μl of this dilution were diluted with 190 μl AGLA-substrate solution in a pre-warmed plate (Greiner 655076) at 25° C.
(§6) Fluorescence measurements were taken at excitation of 350 nm and emission of 420 nm. The spectrofluorometer software calculated the reaction rates (=slope) of the increase in fluorescence for each well to a linearly regressed line of (milli-) RFU/min. The ratio of the residual and initial AGLA activity was used to express the 25% TIDE® 2× stability as follows: Percentage of residual activity=[slope of stressed]*100/[slope of unstressed]
(§7) For each sample (thermolysin and variants thereof) the performance index was calculated by dividing the residual activity of the variant by the residual activity of thermolysin. The performance index compared the stability of the variant and the standard thermolysin enzyme (e.g., wild type or parental enzyme), determined under the same conditions.
(§8) In these experiments, the liberation of Abz-AG by protease cleavage of Abz-AGLA-Nba was monitored by fluorescence spectrometry (Ex. 350/Em. 420). The rate of appearance of Abz-AG was a measure of proteolytic activity.
(§9) The Abz-AGLA-Nba assay solution was prepared by adding 1 ml of the Abz-AGLA-Nba stock to 19 ml MES substrate buffer and mixed well for at least 2 minutes. Subsequently the thermolysin or variants thereof containing culture supernatants were diluted with MES assay buffer to a concentration of 1-6 μg protein per ml.
(§10) The assay was performed by adding 10 μl of diluted protease solution to each well, followed by the addition of 190 μl Abz-AGLA-Nba assay solution that was pre-equilibrated for at least 15 minutes at 25° C. The solutions were vigorously mixed, and the liberation of Abz-AG by protease cleavage of Abz-AGLA-Nba was monitored by fluorescence spectrometry at 25° C. in kinetic mode with excitation set at 350 nm and emission set at 420 nm. The rate of appearance of Abz-AG was a measure of proteolytic activity in the samples. The protease activity was expressed as RFU (relative fluorescence units·min^−1).
(§11) As described in Example 1, the stability of thermolysin variants was measured by determining the AGLA activity before and after incubation in the presence of TIDE® 2× heavy duty liquid (HDL) detergent at an elevated temperature. The tables contain the relative stability values compared to wild-type thermolysin, which is the quotient of the variant residual activity divided by the wild-type residual activity. A value greater than one indicates higher stability in the presence of detergent. […]

[3] = Stability assay in 25% TIDE 2X detergent without DTPA (residual Abz-AGLA-Nba protease activity); format: physicochemical; conditions: 180 min at 50°C; variant residual AGLA activity divided by wild-type residual activity
Procedure: as §1, §2, §3, §4, §5, §6, §7, §8, §9, §10, §11

Molecule | PI (performance index), stain removal [1] | PI (relative stability), 25% TIDE 2X with DTPA [2] | PI (relative stability), 25% TIDE 2X without DTPA [3]
B1 | 1.08 | 1.12 | 
B2 | 1.11 | 1.10 | 
B3 |  | 1.05 | 1.28
B4 |  | 1.08 | 1.26
B5 |  | 1.08 | 1.34
B6 |  | 1.25 | 1.09
B7 | 1.17 | 1.11 | 
B8 |  | 1.05 | 1.14
B9 |  | 1.01 | 1.19
B10 |  | 1.01 | 1.05
B11 |  | 1.08 | 1.08
B12 |  | 1.03 | 1.07
B13 |  | 1.23 | 1.17
B14 |  | 1.18 | 1.15
B15 |  | 1.15 | 1.24
